# Experimental data as given in patent US10722558 (dated 2020).
# Like-named read-outs stand apart in the source and are kept apart here.
# T1: Activin A (human, UniProt P08476)
# T1 chain: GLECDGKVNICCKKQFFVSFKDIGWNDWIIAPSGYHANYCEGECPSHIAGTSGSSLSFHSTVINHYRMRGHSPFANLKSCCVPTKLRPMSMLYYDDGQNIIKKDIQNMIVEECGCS
# T2: Activin B (human, UniProt P09529)
# T2 chain: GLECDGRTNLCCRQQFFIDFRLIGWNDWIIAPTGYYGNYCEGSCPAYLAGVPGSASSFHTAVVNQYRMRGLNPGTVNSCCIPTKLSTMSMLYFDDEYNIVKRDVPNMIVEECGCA
# T3: GDF11 (human, UniProt O95390)
# T3 chain: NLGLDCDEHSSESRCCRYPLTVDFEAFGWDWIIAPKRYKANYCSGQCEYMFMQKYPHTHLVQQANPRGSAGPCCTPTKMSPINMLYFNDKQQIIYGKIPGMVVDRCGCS
# T4: BMP6 (human, UniProt P22004)
# T4 chain: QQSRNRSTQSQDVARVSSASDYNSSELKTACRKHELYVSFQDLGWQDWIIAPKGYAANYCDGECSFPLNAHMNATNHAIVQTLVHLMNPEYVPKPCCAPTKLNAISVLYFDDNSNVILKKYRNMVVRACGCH
# T5: BMP10 (human, UniProt O95393)
# T5 chain: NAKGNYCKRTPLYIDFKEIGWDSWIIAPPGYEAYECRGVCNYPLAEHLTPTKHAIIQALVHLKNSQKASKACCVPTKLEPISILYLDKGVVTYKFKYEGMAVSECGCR
# T6: GDF3 (human, UniProt Q9NR23)
# T6 chain: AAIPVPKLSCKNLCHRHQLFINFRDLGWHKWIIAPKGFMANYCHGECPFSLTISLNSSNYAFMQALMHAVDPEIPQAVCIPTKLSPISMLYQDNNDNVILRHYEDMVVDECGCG
# T7: BMP9 (human, UniProt Q9UK05)
# T7 chain: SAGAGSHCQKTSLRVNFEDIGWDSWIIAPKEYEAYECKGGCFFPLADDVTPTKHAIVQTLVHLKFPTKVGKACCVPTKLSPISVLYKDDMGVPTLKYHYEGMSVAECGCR
# What was measured:
# Activin A [1] = biological target: T1, Activin A; test: SPR
# GDF8 [2] = biological target: T8, GDF8 (human, UniProt O14793); test: SPR
# Activin B [3] = biological target: T2, Activin B; test: SPR
# GDF11 [4] = biological target: T3, GDF11; test: SPR
# Activin A [5] = biological target: T1, Activin A; test: SPR
# GDF11 [6] = biological target: T3, GDF11; test: SPR
# Activin A [7] = biological target: T1, Activin A; test: SPR
# GDF8 [8] = biological target: T8, GDF8; test: SPR; remark: listed apart in the source
# Activin A [9] = biological target: T1, Activin A; test: SPR
# BMP6 = biological target: T4, BMP6; test: SPR
# BMP10 = biological target: T5, BMP10; test: SPR
# GDF11 [10] = biological target: T3, GDF11; test: SPR
# GDF3 = biological target: T6, GDF3; test: SPR
# BMP9 = biological target: T7, BMP9; test: SPR, transient
# Activin B [11] = biological target: T2, Activin B; test: SPR
# GDF11 [12] = biological target: T3, GDF11; test: SPR, very low signal
# T8 sequence (O14793 267-375): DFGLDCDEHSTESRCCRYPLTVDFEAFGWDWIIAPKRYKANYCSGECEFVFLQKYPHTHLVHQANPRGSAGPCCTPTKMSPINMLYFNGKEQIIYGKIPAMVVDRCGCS
binder,measurement,setting,value
ActRIIB(R64K 20-129)-hFc (protein) GRGEAETRECIYYNANWELERTNQSGLERCEGEQDKRLHCYASWKNSSGTIELVKKGCWLDDFNCYDRQECVATEENPQVYFCCCEGNFCNERFTHLPEAGGPEVTYEPP,Kd,Activin A [1],0.0841 nM
same,Kd,GDF8 [2],2.15 nM
ActRIIB(L79D 20-134)-hFc (protein) GRGEAETRECIYYNANWELERTNQSGLERCEGEQDKRLHCYASWRNSSGTIELVKKGCWDDDFNCYDRQECVATEENPQVYFCCCEGNFCNERFTHLPEAGGPEVTYEPPPTAPTGGGTHTCPPCPAPELLGGPSVFLFPPKPKDTLMISRTPEVTCVVVDVSHEDPEVKFNWYVDGVEVHNAKTKPREEQYNSTYRVVSVLTVLHQDWLNGKEYKCKVSNKALPVPIEKTISKAKGQPREPQVYTLPPSREEMTKNQVSLTCLVKGFYPSDIAVEWESNGQPENNYKTTPPVLDSDGSFFLYSKLTVDKSRWQQGNVFSCSVMHEALHNHYTQKSLSLSPGK,Kd,Activin B [3],0.788 nM
same,Kd,GDF11 [4],0.123 nM
same,Kd,Activin A [5],13.5 nM
ActRIIB-Fc K55A (protein) GRGEAETRECIYYNANWELERTNQSGLERCEGEQDKRLHCYASWRNSSGTIELVAKGCWLDDFNCYDRQECVATEENPQVYFCCCEGNFCNERFTHLPEAGGPEVTYEPPPTAPTGGGTHTCPPCPAPELLGGPSVFLFPPKPKDTLMISRTPEVTCVVVDVSHEDPEVKFNWYVDGVEVHNAKTKPREEQYNSTYRVVSVLTVLHQDWLNGKEYKCKVSNKALPVPIEKTISKAKGQPREPQVYTLPPSREEMTKNQVSLTCLVKGFYPSDIAVEWESNGQPENNYKTTPPVLDSDGSFFLYSKLTVDKSRWQQGNVFSCSVMHEALHNHYTQKSLSLSPGK,binding result,GDF11 [6],no binding
ActRIIB-Fc +15tail (protein) GRGEAETRECIYYNANWELERTNQSGLERCEGEQDKRLHCYASWRNSSGTIELVKKGCWLDDFNCYDRQECVATEENPQVYFCCCEGNFCNERFTHLPEAGGPEVTYEPPPTAPTGGGTHTCPPCPAPELLGGPSVFLFPPKPKDTLMISRTPEVTCVVVDVSHEDPEVKFNWYVDGVEVHNAKTKPREEQYNSTYRVVSVLTVLHQDWLNGKEYKCKVSNKALPVPIEKTISKAKGQPREPQVYTLPPSREEMTKNQVSLTCLVKGFYPSDIAVEWESNGQPENNYKTTPPVLDSDGSFFLYSKLTVDKSRWQQGNVFSCSVMHEALHNHYTQKSLSLSPGK,Kd,Activin A [7],~26 nM
ActRIIB(20-134)-hFc (protein) GRGEAETRECIYYNANWELERTNQSGLERCEGEQDKRLHCYASWRNSSGTIELVKKGCWLDDFNCYDRQECVATEENPQVYFCCCEGNFCNERFTHLPEAGGPEVTYEPPPTAPTGGGTHTCPPCPAPELLGGPSVFLFPPKPKDTLMISRTPEVTCVVVDVSHEDPEVKFNWYVDGVEVHNAKTKPREEQYNSTYRVVSVLTVLHQDWLNGKEYKCKVSNKALPVPIEKTISKAKGQPREPQVYTLPPSREEMTKNQVSLTCLVKGFYPSDIAVEWESNGQPENNYKTTPPVLDSDGSFFLYSKLTVDKSRWQQGNVFSCSVMHEALHNHYTQKSLSLSPGK,Kd,Activin B [3],0.012 nM
same,Kd,GDF11 [4],0.036 nM
same,Kd,Activin A [5],0.016 nM
ALK4-Fc:ActRIIB-Fc heterodimer (protein) chain 1: SGPRGVQALLCACTSCLQANYTCETDGACMVSIFNLDGMEHHVRTCIPKVELVPAGKPFYCLSSEDLRNTHCCYTDYCNRIDLRVPSGHLKEPEHPSMWGPVETGGGTHTCPPCPAPELLGGPSVFLFPPKPKDTLMISRTPEVTCVVVDVSHEDPEVKFNWYVDGVEVHNAKTKPREEQYNSTYRVVSVLTVLHQDWLNGKEYKCKVSNKALPAPIEKTISKAKGQPREPQVYTLPPSREEMTKNQVSLTCLVKGFYPSDIAVEWESNGQPENNYDTTPPVLDSDGSFFLYSDLTVDKSRWQQGNVFSCSVMHEALHNHYTQKSLSLSPG chain 2: GRGEAETRECIYYNANWELERTNQSGLERCEGEQDKRLHCYASWRNSSGTIELVKKGCWLDDFNCYDRQECVATEENPQVYFCCCEGNFCNERFTHLPEAGGPEVTYEPPPTAPTGGGTHTCPPCPAPELLGGPSVFLFPPKPKDTLMISRTPEVTCVVVDVSHEDPEVKFNWYVDGVEVHNAKTKPREEQYNSTYRVVSVLTVLHQDWLNGKEYKCKVSNKALPAPIEKTISKAKGQPREPQVYTLPPSRKEMTKNQVSLTCLVKGFYPSDIAVEWESNGQPENNYKTTPPVLKSDGSFFLYSKLTVDKSRWQQGNVFSCSVMHEALHNHYTQKSLSLSPGK,Kd,GDF8 [8],0.55 nM
same,Kd,Activin A [9],0.012 nM
same,Kd,BMP6,2.7 nM
same,Kd,BMP10,0.074 nM
same,Kd,GDF11 [10],0.003 nM
same,Kd,GDF3,4.9 nM
same,Kd,BMP9,3.4 nM
same,Kd,Activin B [11],0.006 nM
ALK4-Fc homodimer (protein) SGPRGVQALLCACTSCLQANYTCETDGACMVSIFNLDGMEHHVRTCIPKVELVPAGKPFYCLSSEDLRNTHCCYTDYCNRIDLRVPSGHLKEPEHPSMWGPVE,Kd,GDF11 [12],0.27 nM
